From PMC4878814, “Mechanism of Human Nucleocytoplasmic Hexosaminidase D” (Biochemistry, 2016)

Tests used:
[1] = biological target: T1, hexosaminidase D (HexD) (Homo sapiens, UniProt Q8WVB3); experiment: inhibition of purified enzyme hydrolysis of PNP-GalNAc, absorbance, Lineweaver-Burk and nonlinear regression; type: biochemical
T1 construct: human HexD in pET30a vector, expressed in E. coli BL21(DE3)
T1 sequence (Q8WVB3 1-486): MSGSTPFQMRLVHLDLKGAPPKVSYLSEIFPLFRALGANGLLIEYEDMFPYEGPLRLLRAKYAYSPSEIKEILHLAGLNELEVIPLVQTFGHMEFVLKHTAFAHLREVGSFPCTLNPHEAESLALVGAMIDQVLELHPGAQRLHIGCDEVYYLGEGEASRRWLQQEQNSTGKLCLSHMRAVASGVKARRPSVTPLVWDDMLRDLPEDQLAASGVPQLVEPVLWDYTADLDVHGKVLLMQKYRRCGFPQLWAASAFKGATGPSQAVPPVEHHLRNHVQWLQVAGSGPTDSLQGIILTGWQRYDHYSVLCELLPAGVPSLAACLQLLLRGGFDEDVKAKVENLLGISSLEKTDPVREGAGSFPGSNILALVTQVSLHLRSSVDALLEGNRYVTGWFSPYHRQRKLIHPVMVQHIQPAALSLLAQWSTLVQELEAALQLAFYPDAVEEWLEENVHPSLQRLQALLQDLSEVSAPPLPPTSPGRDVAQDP

[2] = biological target: T2, murine HexD (Mus musculus, UniProt Q3U4H6); experiment: enzyme inhibition, preliminary studies (data not shown); type: biochemical
T2 sequence (Q3U4H6 1-486): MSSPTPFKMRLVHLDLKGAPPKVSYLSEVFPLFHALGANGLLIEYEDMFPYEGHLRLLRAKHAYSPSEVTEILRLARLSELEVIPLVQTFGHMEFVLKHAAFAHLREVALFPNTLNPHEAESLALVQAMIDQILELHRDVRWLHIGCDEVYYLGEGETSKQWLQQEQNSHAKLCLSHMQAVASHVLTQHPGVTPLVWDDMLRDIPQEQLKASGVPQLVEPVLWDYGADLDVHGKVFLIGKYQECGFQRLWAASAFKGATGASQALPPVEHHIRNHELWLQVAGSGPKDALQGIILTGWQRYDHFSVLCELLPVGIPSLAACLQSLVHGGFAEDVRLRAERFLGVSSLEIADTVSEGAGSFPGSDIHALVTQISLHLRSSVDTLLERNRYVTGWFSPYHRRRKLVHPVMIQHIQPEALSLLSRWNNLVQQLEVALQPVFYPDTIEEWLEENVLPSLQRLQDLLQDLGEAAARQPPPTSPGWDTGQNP

[3] = substrate: CC(=O)N[C@H]1[C@H](Oc2ccc([N+](=O)[O-])cc2)O[C@H](CO)[C@H](O)[C@@H]1O; experiment: Michaelis-Menten kinetics of hydrolysis by purified enzyme (KM); hydrolysis also followed by 1H NMR; type: biochemical, Homo sapiens; conditions: active site; Asp148 polarizing residue, Glu149 general acid/base
[4] = substrate: O=C(N[C@H]1[C@H](Oc2ccc([N+](=O)[O-])cc2)O[C@H](CO)[C@H](O)[C@@H]1O)C(F)F; experiment: purified protein
[5] = substrate: CC(=O)N[C@H]1[C@H](Oc2ccc([N+](=O)[O-])c(F)c2)O[C@H](CO)[C@H](O)[C@@H]1O; experiment: purified protein
[6] = substrate: O=C(CF)N[C@H]1[C@H](Oc2ccc([N+](=O)[O-])cc2)O[C@H](CO)[C@H](O)[C@@H]1O; experiment: purified protein
[7] = substrate: O=C(N[C@H]1[C@H](Oc2ccc([N+](=O)[O-])cc2)O[C@H](CO)[C@H](O)[C@@H]1O)C(F)(F)F; experiment: purified protein
[8] = substrate: CC(=O)N[C@H]1[C@H](Oc2ccc([N+](=O)[O-])cc2)O[C@H](CO)[C@@H](O)[C@@H]1O; experiment: purified protein
[9] = substrate: CC(=O)N[C@H]1[C@H](Oc2ccc([N+](=O)[O-])c(F)c2)O[C@H](CO)[C@@H](O)[C@@H]1O; experiment: purified protein

With `CC1=N[C@@H]2[C@@H](O)[C@@H](O)[C@@H](CO)O[C@@H]2S1` [compound 4, Gal-NAG-thiazoline] the Ki [1] was 420 nM and the Ki [2] was 520 nM.

B1: hexosaminidase D (HexD) (Homo sapiens) (protein)
chain: T1 sequence (Q8WVB3 1-486)
notes: human HexD in pET30a vector, expressed in E. coli BL21(DE3)
Molecule B1 has a Km [3] of 72.1 ± 4.8 µM, a kcat [3] of 1.32 ± 0.02 s⁻¹ and a kcat/Km [3] of 18200 ± 1250 M⁻¹ s⁻¹. The Km [4] was 102 ± 16 µM, the kcat [4] was 0.27 ± 0.0108 s⁻¹ and the kcat/Km [4] was 2650 ± 417 M⁻¹ s⁻¹. The Km [5] was 172 ± 19 µM, the kcat [5] was 2.03 ± 0.065 s⁻¹ and the kcat/Km [5] was 11800 ± 1350 M⁻¹ s⁻¹. It also gave a Km [6] of 533 ± 17 µM, a kcat [6] of 2.6 ± 0.0317 s⁻¹ and a kcat/Km [6] of 4980 ± 183 M⁻¹ s⁻¹. For the same molecule, the Km [7] was 103 ± 27 µM, the kcat [7] was 0.042 ± 0.00283 s⁻¹ and the kcat/Km [7] was 408 ± 108 M⁻¹ s⁻¹. The Km [8] was 607 ± 53 µM, the kcat [8] was 0.507 ± 0.0148 s⁻¹ and the kcat/Km [8] was 835 ± 76.7 M⁻¹ s⁻¹. The Km [9] was 852 ± 54 µM, the kcat [9] was 1.54 ± 0.045 s⁻¹ and the kcat/Km [9] was 1820 ± 127 M⁻¹ s⁻¹.
